The results in this text go back to the DeepSol protein solubility set.

This series can be described thus: soluble on expression in E. coli; label from the status in PepcDB or PDB records.
Take “LSFSSAVKNELCRVETDRSSSLFELAAAARISGLIKVVNANEINLRLVTENAAFARRIFSQIKDLYGINAEISIRRSPKLKKNIVYIIVLTSSKGLMRILEDINIKVSEKVEYIPYARCMRKKEYRKAYLRGAFLASGSMSDPEKTYHLEITCHNMALATEVSDLMDSFKLHSKVTKRKGNYVVYLKEGENIVDFLNIIGAHSALLELENIRILKEMRNNVNRIVNCETANLQKTVDASVRQVENINYIKEHLGFDKLPENLREIAKMRLAYSDATLKELGEMLNPPLGKSGVNHRLRKLDKIAESLRNMKGEL”: the “soluble on expression in E. coli” value is “soluble”.

With “MSEQFEMIAKTFQGLEEILAEELTTLGANDIQIGRRMVSFTGDKRMMYKANFCLRTAIRILKPIKNFTAKDADEVYNQIQAIPWEEYLDVNKTFAIDAVVFSEEFRHSKFVSYKVKDAIVDYFRKKTGKRPSVRINNPDVLLNIHIAQTTCTLSLDSSGESLHRRGYRQEQVDAPLNEVLAAGMLLMTGWRGECDLIDPMCGSGTIPIEAALIARNIAPGVFRKGFAFEKWVDFDSEMFDEIYNDDSQEREFTHKIYGYDNNPKANEIATHNIKAAGVSKDVTLKLQPFQQFEQPQEKSIIVMNPPYGERISTNDLLGLYQMIGERLKHAFVGNEAWVLSYREECFDQIGLKPSKKVPLFNGALECEFRKYEIFDGKYKEFKSQEGEGEEKKETEGNYDTSRPRERKEFKPRGEGEFKPRREGEFKPRREGEFKPRKEGDFKPRREEGSFTRDDRDRKPRGEFRGERDSRAPREFRGNREPRIPKKEEE”, the “soluble on expression in E. coli” value is “not soluble”.

For “MGSDKIHHHHHHMVEVVGVRFREAGHIYYFAPGKSEYIYNEKVLVESQQSKQLATVAIPKKTVDSDDLPEDLKPILNKATANDLEKEQKNLADAEAAKSIANEKIRAHDLKMKLVRVEYTFDRSKMIFYFTADGRIDFRELVKDLAAIFRTRIELRQIGVRDEAKILGGIGPCGRQLCCSTFLGDFMPVSIKMAKDQGLSLNPVKISGLCGRLMCCLKYENDEYEAAKKELPDYGKEVITPDGKGKVVGLNLLSRIVKVRLHGREIAADYDYEEIKEATAKVAAEKGDQNG”, the “soluble on expression in E. coli” value is “not soluble”.

With “MAKAVGIDLGTTNSVIAVLEGGKPVVLENAEGERVTPSVVAFRDGETLVGRMAKRQAVLNPEGTIFEIKRFIGRRFEEVQEEAKRVPYKVVPGPDGGVRVEVKGKLYTPEEISAMILRKLVEDASKKLGEKITKAVITVPAYFNNAQREATANAGRIAGLEVLRIINEPTAAALAYGLDKKGNETVLVFDLGGGTFDVTILEIGEGVFEVKATSGDTHLGGSDMDHAIVNWLAEEFKKEHGVDLKADRQALQRLIEAAEKAKIELSSTLETTISLPFIALDPASKTPLHLEKKLTRAKFEELIQPLLKRLRGPVEQALKDAGLTPAQIDEVILVGGATRVPAVQQVVRELLGKEPNRSVNPDEVVAMGAAIQAGVLMGEVRDVVLLDVTPLSLGVETKGGVMTVLIPRNTTIPTRKCEIFTTAEHNQTAVKSIVFQGKRPMAQDNKSLGRFRLEGIPPMPAGVPQIEVCFDIDANGILHVTAKERSTGREASITIQNTTTLSEEEIQRIIEEAKRHAEEDRRRREHAELKNALDSARVQAERVLQERQGAPEARARLEAAIGKAKELVERDAPDPELKAATEELLKAVEEYEKGAQAASGKGPDDVIDADYKPAD”, the “soluble on expression in E. coli” value was “soluble”.

Turning to “SKFIAKQSVGAEVIDTPRTEEEAWLLNTVEAQARQWNLKTPEVAIYHSPEPNAFATGASRNSSLIAVSTGLLDHMTRDEVEAVLAHEMAHVGNGDM”, the “soluble on expression in E. coli” value is recorded as “not soluble”.

For the sequence “MGSDKIHHHHHHARPQEKIKKKEISQSYSVSAGDRLQVENRYGNITVTHWNQNTVAIRVEVECKARSEERAQENLDRIQIETKKIGGIVSAVTTIKKEMNSNSNNESMTINYYIQMPPKLAADLNQKYGNINLPSDNNGNMDIHVKYGNLNAGNFTANAMIEAKYGNIEVGNLQDAQLDLGYVGTAKIRNAKDLTIDSKYSNLDIQDIQSLRMEIKYGNLTIESVSRLDMEIKYSDAKIGTLKDALNVSSLSYSNLKIRNLSPSFSKVNVESHYGNLEVALPAKTSFRIVAENMKYSSCDVNGFNITRKHFDDEDRDKNYTYEINGGKQPTIHFEGNRYGNLKVKAN”, the “soluble on expression in E. coli” value is “not soluble”.

Turning to “MASRETILDVLAKLEECKETLNNSLNYDEAANSNGSSTFQDQSEIKIEHIAPNLVFENGTVPQEQSNSFQWYEEEVSNDACVSSNEYSGVKLCPFNIGFKSYNTPPDQMQQLDKSISDNMACRMNVDFSGIDRLIQHGSEDMRTVGYGMRGMMKLLQIQHEKLMGKKPDDVTTGLKASLVPARFLKEKTVIVRNLTDDADINVNKVFGQLTAQSSSLKNIVINAANVWIKNVVPDEQRKLYSTSIKPQQPQITFPAQLLNGPAGLLVRCLSVTGGDNSSNAVNISLLFKQHVSNLFNHARSKSGITNSRKRKQQSEDYSYN”, the “soluble on expression in E. coli” value is “not soluble”.
